Numbering of substitutions follows the chain as printed.
T1: FcγRIIa R type extracellular domain with C-terminal His tag (human, UniProt P12318 34-217)
T1 construct: extracellular domain; also called FcgRIIaR; not shown: His tag at the C terminus
T1 sequence (looked up): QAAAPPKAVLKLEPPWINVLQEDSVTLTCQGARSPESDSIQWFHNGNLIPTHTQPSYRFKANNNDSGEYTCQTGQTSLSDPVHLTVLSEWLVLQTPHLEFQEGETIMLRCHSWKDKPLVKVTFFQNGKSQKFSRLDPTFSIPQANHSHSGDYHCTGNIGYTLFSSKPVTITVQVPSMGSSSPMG

T2: FcγRIIb extracellular domain with C-terminal His tag (human, UniProt P31994 43-217)
T2 construct: extracellular domain; also called FcgRIIb; not shown: His tag at the C terminus
T2 sequence (looked up): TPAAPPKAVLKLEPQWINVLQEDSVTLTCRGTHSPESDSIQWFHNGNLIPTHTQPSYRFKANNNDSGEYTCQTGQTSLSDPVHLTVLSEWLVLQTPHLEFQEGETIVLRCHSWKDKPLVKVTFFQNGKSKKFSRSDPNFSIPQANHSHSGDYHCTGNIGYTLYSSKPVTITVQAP

T3: FcgRIIaR (human, UniProt P12318 34-217)
T3 construct: extracellular domain; also called FcγRIIa R type; FcγRIIa (R type)
T3 sequence (looked up): T1 sequence (looked up)

T4: FcgRIIb (human, UniProt P31994 43-217)
T4 construct: extracellular domain; also called FcγRIIb
T4 sequence (looked up): T2 sequence (looked up)

T5: human FcγRIIa R type extracellular domain with C-terminal His tag (human, UniProt P12318 34-217)
T5 construct: extracellular domain; also called FcgRIIaR
T5 sequence (looked up): T1 sequence (looked up)

T6: human FcγRIIa H type extracellular domain with C-terminal His tag (human, UniProt P12318 34-217)
T6 construct: extracellular domain; also called FcgRIIaH
T6 sequence (looked up): T1 sequence (looked up) with R134H

T7: human FcγRIIb extracellular domain with C-terminal His tag (human, UniProt P31994 43-217)
T7 construct: extracellular domain; also called FcgRIIb
T7 sequence (looked up): T2 sequence (looked up)

B1: IL6R-BP490/IL6R-L (antibody, human IgG1, kappa, name in EU numbering)
heavy: QVQLQESGPGLVKPSETLSLTCAVSGHSISHDHAWSWVRQPPGEGLEWIGFISYSGITNYNPSLQGRVTISRDNSKNTLYLQMNSLRAEDTAVYYCARSLARTTAMDYWGEGTLVTVSSASTKGPSVFPLAPSSKSTSGGTAALGCLVKDYFPEPVTVSWNSGALTSGVHTFPAVLQSSGLYSLSSVVTVPSSSLGTQTYICNVNHKPSNTKVDKKVEPKSCDKTHTCPPCPAPELLGDDSVFLFPPKPKDTLMISRTPEVTCVVIDVAEEDGEVKFNWYVDGVEVHNAKTKPREEQYNSTYRVVSVLTVLHQDWLNGKEYKCKVSNKALPRPIEKTISKAKGQPREPQVYTLPPSRDELTKNQVSLTCLVKGFYPSDIAVEWESNGQPENNYKTTPPVLDSDGSFFLYSKLTVDKSRWQQGNVFSCSVMHEALHNHYTQESLSLSP
light: not shown
notes: human IgG1
B2: IL6R-BP506/IL6R-L (antibody, human IgG1, kappa, name in EU numbering)
heavy: B1 heavy with E235D, E274P, Y298D
light: not shown
notes: human IgG1
B3: IL6R-BP507/IL6R-L (antibody, human IgG1, kappa, name in EU numbering)
heavy: B1 heavy with E235D, E274P
light: not shown
notes: human IgG1
B4: IL6R-BP531/IL6R-L (antibody, human IgG1, kappa, name in EU numbering)
heavy: B1 heavy with E235D, A269G, Y298D, P398M
light: not shown
notes: human IgG1
B5: IL6R-BP532/IL6R-L (antibody, human IgG1, kappa, name in EU numbering)
heavy: B1 heavy with E235D, A269S, Y298D, P398M
light: not shown
notes: human IgG1
B6: IL6R-BP534/IL6R-L (antibody, human IgG1, kappa, name in EU numbering)
heavy: B1 heavy with E235D, A269S, Y298D, P398L
light: not shown
notes: human IgG1
B7: IL6R-BP535/IL6R-L (antibody, human IgG1, kappa, name in EU numbering)
heavy: B1 heavy with E235D, A269G, Y298D, A329G, P398M
light: not shown
notes: human IgG1
B8: IL6R-BP537/IL6R-L (antibody, human IgG1)
heavy: B1 heavy with A269G
light: not shown
notes: human IgG1
B9: IL6R-BP552/IL6R-L (antibody, human IgG1, kappa, name in EU numbering)
heavy: B1 heavy with E235D, E274D, Y298D
light: not shown
notes: human IgG1
B10: IL6R-BP553/IL6R-L (antibody, human IgG1, kappa, name in EU numbering)
heavy: B1 heavy with E235D, E274D
light: not shown
notes: human IgG1
B11: IL6R-BP555/IL6R-L (antibody, human IgG1, kappa, name in EU numbering)
heavy: B1 heavy with E274D, Y298D
light: not shown
notes: human IgG1
B12: IL6R-BP561/IL6R-L (antibody, human IgG1, kappa, name in EU numbering)
heavy: B1 heavy with E235D, I266V, A269S, E270D, E274D, Y298D
light: not shown
notes: human IgG1
B13: IL6R-G1dGSS/IL6R-L (antibody, human IgG1, kappa)
heavy: B1 heavy with D239G, D240P, I266V, A269S, E270H, G273P, A329G, R332S, P333S, E441K
light: not shown
B14: IL6R-P555/IL6R-L (antibody, human IgG1, kappa)
heavy: B1 heavy with I266V, A269S, E270D, R332A, E441K
light: not shown
B15: IL6R-P556/IL6R-L (antibody, human IgG1, kappa)
heavy: B1 heavy with E235D, I266V, A269S, E270D, R332A, E441K
light: not shown
B16: IL6R-P559/IL6R-L (antibody, human IgG1, kappa)
heavy: B1 heavy with I266V, A269S, R332A, E441K
light: not shown
B17: IL6R-P562/IL6R-L (antibody, human IgG1, kappa)
heavy: B1 heavy with E235D, I266V, A269S, R332A, E441K
light: not shown
B18: IL6R-P587/IL6R-L (antibody, human IgG1, kappa)
heavy: B1 heavy with E235D, D239G, R332A, E441K
light: not shown
B19: IL6R-P588/IL6R-L (antibody, human IgG1, kappa)
heavy: B1 heavy with D239G, R332A, E441K
light: not shown
B20: IL6R-P691/IL6R-L (antibody, human IgG1, kappa)
heavy: B1 heavy with L237F, D239Q, F243M, I266V, A269S, E270H, G273P, Y298E, R332A, E441K
light: not shown
B21: IL6R-P727/IL6R-L (antibody, human IgG1, kappa)
heavy: B1 heavy with D239Q, F243M, I266V, A269S, E270P, G273P, Y298E, R332H, E441K
light: not shown
B22: IL6R-P729/IL6R-L (antibody, human IgG1, kappa)
heavy: B1 heavy with L237F, D239Q, F243M, I266V, A269S, E270P, G273P, Y298E, R332A, E441K
light: not shown
B23: IL6R-P733/IL6R-L (antibody, human IgG1, kappa)
heavy: QVQLQESGPGLVKPSETLSLTCAVSGHSISHDHAWSWVRQPPGEGLEWIGFISYSGITNYNPSLQGRVTISRDNSKNTLYLQMNSLRAEDTAVYYCARSLARTTAMDYWGEGTLVTVSSASTKGPSVFPLAPSSKSTSGGTAALGCLVKDYFPEPVTVSWNSGALTSGVHTFPAVLQSSGLYSLSSVVTVPSSSLGTQTYICNVNHKPSNTKVDKKVEPKSCDKTHTCPPCPAPELFGQDSVMLFPPKPKDTLMISRTPEVTCVVVDVSPEDPEVKFNWYVDGVEVHNAKTKPREEQENSTYRVVSVLTVLHQDWLNGKEYKCKVHNKALPAPIEKTISKAKGQPREPQVYTLPPSRDELTKNQVSLTCLVKGFYPSDIAVEWESNGQPENNYKTTPPVLDSDGSFFLYSKLTVDKSRWQQGNVFSCSVMHEALHNHYTQKSLSLSP
light: not shown
B24: IL6R-P737/IL6R-L (antibody, human IgG1, kappa)
heavy: B23 heavy with F237L, A332H
light: not shown
B25: IL6R-P743/IL6R-L (antibody, human IgG1, kappa)
heavy: B23 heavy with F237L, Q239G, M243F, P270H, E298Y, H326S, A329G, A332S, P333S
light: not shown
B26: IL6R-P744/IL6R-L (antibody, human IgG1, kappa)
heavy: B23 heavy with F237L, Q239G, M243F, P270H, E298Y, S300A, K324A, H326S
light: not shown
B27: IL6R-P587/IL6R-L (antibody, human IgG1, kappa)
heavy: B1 heavy with E235D, D239G, R332A, E441K
light: not shown

Each binder was assayed against T8, FcγRIa extracellular domain with C-terminal His tag (human, UniProt P12314 16-292) (assay: SPR, antibody captured, FcgR analyte).
T8 construct: also called FcgRIa; CD64; not shown: His tag at the C terminus
T8 sequence (P12314 16-292): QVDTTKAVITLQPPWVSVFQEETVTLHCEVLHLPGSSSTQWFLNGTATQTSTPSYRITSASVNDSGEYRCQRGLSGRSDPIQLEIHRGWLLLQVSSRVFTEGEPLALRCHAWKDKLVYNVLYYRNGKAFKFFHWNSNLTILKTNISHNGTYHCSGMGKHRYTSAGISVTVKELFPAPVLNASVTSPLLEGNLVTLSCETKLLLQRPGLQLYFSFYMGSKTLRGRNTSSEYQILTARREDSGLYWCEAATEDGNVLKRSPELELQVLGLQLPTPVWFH

Binder	Kd
B1	4.5 nM
B2	3.1 nM
B3	2.6 nM
B4	9.4 nM
B5	12 nM
B6	9.3 nM
B7	11 nM
B8	29 nM
B9	3.2 nM
B10	3.4 nM
B11	9.4 nM
B12	9.4 nM

Each binder was assayed against T1, FcγRIIa R type extracellular domain … (assay: SPR, antibody captured, FcgR analyte).

Binder	Kd
B1	110 nM
B2	120 nM
B3	100 nM
B4	120 nM
B5	94 nM
B6	91 nM
B7	92 nM
B8	270 nM
B9	97 nM
B10	86 nM
B11	160 nM
B12	510 nM

Each binder was assayed against T2, FcγRIIb extracellular domain with … (assay: SPR, antibody captured, FcgR analyte).

Binder	Kd
B1	2.4 nM
B2	3.4 nM
B3	2.9 nM
B4	3.8 nM
B5	3.2 nM
B6	3 nM
B7	4 nM
B8	6.9 nM
B9	2.6 nM
B10	3.1 nM
B11	4.1 nM
B12	18 nM

The binders below were run against T3, FcgRIIaR (assay: SPR, amount bound per captured antibody).

Binder	Relative FcgRIIaR-binding Activity
B13	98.5 IL6R-G1d/IL6R-L=100
B14	83.8 IL6R-G1d/IL6R-L=100
B15	81.7 IL6R-G1d/IL6R-L=100
B16	89.4 IL6R-G1d/IL6R-L=100
B17	89.7 IL6R-G1d/IL6R-L=100
B18	106 IL6R-G1d/IL6R-L=100
B19	100 IL6R-G1d/IL6R-L=100
B20	10.8 IL6R-G1d/IL6R-L=100
B21	9.7 IL6R-G1d/IL6R-L=100
B22	9 IL6R-G1d/IL6R-L=100
B23	8.1 IL6R-G1d/IL6R-L=100
B24	8 IL6R-G1d/IL6R-L=100
B25	13.5 IL6R-G1d/IL6R-L=100
B26	11.1 IL6R-G1d/IL6R-L=100

These binders were tested against T4, FcgRIIb (assay: SPR, amount bound per captured antibody).

Binder	Relative FcgRIIb-binding Activity
B13	115 IL6R-G1d/IL6R-L=100
B14	305 IL6R-G1d/IL6R-L=100
B15	294 IL6R-G1d/IL6R-L=100
B16	319 IL6R-G1d/IL6R-L=100
B17	311 IL6R-G1d/IL6R-L=100
B18	350 IL6R-G1d/IL6R-L=100
B19	346 IL6R-G1d/IL6R-L=100
B20	119 IL6R-G1d/IL6R-L=100
B21	93 IL6R-G1d/IL6R-L=100
B22	100 IL6R-G1d/IL6R-L=100
B23	84.8 IL6R-G1d/IL6R-L=100
B24	78.7 IL6R-G1d/IL6R-L=100
B25	69.4 IL6R-G1d/IL6R-L=100
B26	81.4 IL6R-G1d/IL6R-L=100

These binders were tested against T9, human complement C1q (human, UniProt P02745 23-245; P02746 28-253; P02747 29-245) (assay: SPR, C1q bound per antibody captured on Protein L).
T9 construct: Bought (PROSPEC or Calbiochem); also called human C1q
Procedure: The interaction between an antibody and human C1q was analyzed using Biacore T200 (GE Healthcare). HBS-EP+ (GE Healthcare) was used as the running buffer, and the measurement temperature was set at 25° C. Chips produced by immobilizing Protein L (ACTIGEN or BioVision) onto Series S sensor Chip CM4 (GE Healthcare) by amine coupling were used.
The antibodies of interest were captured onto these sensor chips, and allowed to interact with human complement C1q (PROSPEC or Calbiochem) diluted in the running buffer. The amount of antibody binding was determined, and comparisons were made among the antibodies. However, since the amount of C1q bound depends on the amount of captured antibodies, corrected values obtained by dividing the amount of C1q bound by the amount of each antibody captured were compared. Furthermore, by reaction with 10 mM glycine-HCl, pH 1.5, the antibodies captured onto the sensor chips were washed, and the sensor chips were recycled and reused.

T9 sequence (P02745 23-245 limits assumed, chain 1 of 3): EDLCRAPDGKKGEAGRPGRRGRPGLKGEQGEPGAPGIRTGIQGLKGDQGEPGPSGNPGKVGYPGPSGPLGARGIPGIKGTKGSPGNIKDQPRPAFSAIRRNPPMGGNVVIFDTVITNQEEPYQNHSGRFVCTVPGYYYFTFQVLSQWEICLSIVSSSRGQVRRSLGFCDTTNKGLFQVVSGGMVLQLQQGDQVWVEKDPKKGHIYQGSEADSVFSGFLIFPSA
T9 sequence (P02746 28-253 limits assumed, chain 2 of 3): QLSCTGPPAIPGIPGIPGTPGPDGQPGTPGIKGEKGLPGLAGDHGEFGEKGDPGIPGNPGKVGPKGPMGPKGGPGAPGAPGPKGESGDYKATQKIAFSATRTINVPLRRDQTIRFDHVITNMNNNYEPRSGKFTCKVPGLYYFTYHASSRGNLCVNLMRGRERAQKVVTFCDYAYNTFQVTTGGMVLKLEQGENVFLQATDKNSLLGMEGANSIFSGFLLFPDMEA
T9 sequence (P02747 29-245 limits assumed, chain 3 of 3): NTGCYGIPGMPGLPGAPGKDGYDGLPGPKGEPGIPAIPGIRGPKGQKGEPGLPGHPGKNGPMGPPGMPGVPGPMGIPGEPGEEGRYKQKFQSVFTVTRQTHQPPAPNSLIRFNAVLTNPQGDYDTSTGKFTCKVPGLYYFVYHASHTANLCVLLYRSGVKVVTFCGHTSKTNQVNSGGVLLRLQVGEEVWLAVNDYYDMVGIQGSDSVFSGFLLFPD

Binder	Amount of C1q-binding when that for G1d is Defined as 100
B13	15.2 G1d=100
B15	33.5 G1d=100
B16	34.1 G1d=100
B17	29.4 G1d=100
B18	132 G1d=100
B19	108 G1d=100
B20	21 G1d=100
B21	35.5 G1d=100
B22	22.8 G1d=100
B23	23 G1d=100
B24	45.7 G1d=100
B25	20.9 G1d=100
B26	13.6 G1d=100

The binders below were run against T10, human FcγRIa extracellular domain with C-terminal His tag (human, UniProt P12314 16-292) (assay: SPR, KD of IL6R-G1d/IL6R-L divided by KD of variant).
T10 construct: Whole entry named; also called FcgRIa
T10 sequence (P12314 16-292): as the sequence (P12314 16-292) above

Binder	Relative FcgRIa-binding Activity
B27	0.451

Each binder was assayed against T5, human FcγRIIa R type extracellular … in the same assay as above.

Binder	Relative FcgRIIaR-binding Activity
B27	0.92

Each binder was assayed against T6, human FcγRIIa H type extracellular … in the same assay as above.

Binder	Relative FcgRIIaH-binding Activity
B27	0.044

The binders below were run against T7, human FcγRIIb extracellular domain with … in the same assay as above.

Binder	Relative FcgRIIb-binding Activity
B27	75

These binders were tested against T11, human FcγRIIIa V type extracellular domain with C-terminal His tag (human, UniProt P08637 17-208) in the same assay as above.
T11 construct: extracellular domain; also called FcgRIIIaV
T11 sequence (P08637 17-208 F176V): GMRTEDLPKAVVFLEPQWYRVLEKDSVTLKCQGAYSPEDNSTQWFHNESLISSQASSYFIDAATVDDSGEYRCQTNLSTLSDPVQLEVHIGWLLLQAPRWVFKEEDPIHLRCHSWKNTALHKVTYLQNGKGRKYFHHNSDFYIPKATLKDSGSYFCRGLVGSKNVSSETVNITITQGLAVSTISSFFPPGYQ

Binder	Relative FcgRIIIaV-binding Activity
B27	0.012
